Measurements from the supplement of paper PMC7125110.
± gives the standard error. Fewer inactive variants are shown than the library holds.

B1: glmS ribozyme (parent)
chain: AUAAAAGCGCCAGAACUACAGAAAUGUAGUUGACGAGGAGGAGGUUUAUCGAAUUUUCGGCGGAUGCCUCCAAA

Legend:
Conditions in all cases: with glucosamine-6-phosphate
glucosamine-6-phosphate [1] = variants of: B1; experiment: self-cleavage kobs at 640 uM GlcN6P; higher = faster cleavage; RNA array
How it was run: (§1)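 Glucosamine-6-phosphate, from 40 μM to 10 mM in HEPES/KCl/Mg(OAc)2 buffer, was flowed over sequenced MiSeq chips carrying barcoded ribozyme variants transcribed in situ by E. coli RNA polymerase. A hybridised Cy3 probe tracked the variants at 37 °C as tiles were imaged over ~14 h. kobs, kcat and KM were obtained by fitting normalised per-tile medians to exponential decays and then applying weighted Michaelis–Menten fits across concentrations.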

glucosamine-6-phosphate [2] = variants of: B1; experiment: self-cleavage kobs at 2500 uM GlcN6P; higher = faster cleavage; RNA array
How it was run: as §1

glucosamine-6-phosphate [3] = variants of: B1; experiment: self-cleavage kobs at 10000 uM GlcN6P; higher = faster cleavage; RNA array
How it was run: as §1

| Variant | self-cleavage kobs at 640 uM GlcN6P (glucosamine-6-phosphate [1]) | self-cleavage kobs at 2500 uM GlcN6P (glucosamine-6-phosphate [2]) | self-cleavage kobs at 10000 uM GlcN6P (glucosamine-6-phosphate [3]) |
| --- | --- | --- | --- |
| G9U G13U G29U G37C | < 1e-05 s⁻¹ | < 1e-05 s⁻¹ |  |
| A14C U49G C70G | 0.000526 ± 0.00023 s⁻¹ |  |  |
| G43U G63U C71G | < 1e-05 s⁻¹ | < 1e-05 s⁻¹ |  |
| C16U A33G C68G | 5.07e-05 ± 2.3e-05 s⁻¹ |  |  |
| A12U A15U C34G U47A | < 1e-05 s⁻¹ |  |  |
| G29C U31C G35U | < 1e-05 s⁻¹ | < 1e-05 s⁻¹ |  |
| U31A G32C G60A G66A | < 1e-05 s⁻¹ |  |  |
| G35C A42C C50U G51U | < 1e-05 s⁻¹ |  |  |
| A6C G29U A33U | < 1e-05 s⁻¹ |  |  |
| G29A C58U C67G | 0.000115 ± 2.9e-05 s⁻¹ |  |  |
| C8U G32C U45C | < 1e-05 s⁻¹ | < 1e-05 s⁻¹ |  |
| G9U G38U C61U | < 1e-05 s⁻¹ |  |  |
| A48G U49C G66A | < 1e-05 s⁻¹ |  |  |
| G37U C70G C71A | 5.1e-05 ± 1.4e-05 s⁻¹ |  |  |
| G7U C71A | < 1e-05 s⁻¹ |  | < 1e-05 s⁻¹ |
| A33C U45C U56G G62A U65C | < 1e-05 s⁻¹ |  |  |
| A6C U55G U65G C67U | < 1e-05 s⁻¹ |  |  |
| C11U U31C G35C A36U | < 1e-05 s⁻¹ | < 1e-05 s⁻¹ |  |
| G9A G29A A33C G66A | < 1e-05 s⁻¹ |  |  |
| G7U G43U U45A C58A | < 1e-05 s⁻¹ | < 1e-05 s⁻¹ |  |
| G9U G44C G63U | < 1e-05 s⁻¹ | < 1e-05 s⁻¹ |  |
| A12U A48C G51U C71U | < 1e-05 s⁻¹ |  |  |

| Variant | self-cleavage kobs at 640 uM GlcN6P (glucosamine-6-phosphate [1]) | self-cleavage kobs at 2500 uM GlcN6P (glucosamine-6-phosphate [2]) | self-cleavage kobs at 10000 uM GlcN6P (glucosamine-6-phosphate [3]) |
| --- | --- | --- | --- |
| A14C U31G G32A C70G | 6.55e-05 ± 1.4e-05 s⁻¹ | 8.05e-05 ± 2e-05 s⁻¹ |  |
| A36C G38U U49A | < 1e-05 s⁻¹ | < 1e-05 s⁻¹ |  |
| G9C G29A G62A | < 1e-05 s⁻¹ |  |  |
| G32A G35U U57A | < 1e-05 s⁻¹ |  |  |
| C10U C11G G29U U30G G37C | < 1e-05 s⁻¹ |  |  |
| C10G U55A U57A | < 1e-05 s⁻¹ |  |  |
| A33G C34U A42G G51U C58U G59C | < 1e-05 s⁻¹ | < 1e-05 s⁻¹ |  |
| C50G A52G G60U C71U | 0.000392 ± 0.00013 s⁻¹ | 6.62e-05 ± 2.9e-05 s⁻¹ |  |
| C8G G40C | < 1e-05 s⁻¹ | < 1e-05 s⁻¹ | < 1e-05 s⁻¹ |
| A6G A15C C34A A36U | < 1e-05 s⁻¹ | < 1e-05 s⁻¹ |  |
| A15C C58G C70A | 5.23e-05 ± 1.5e-05 s⁻¹ | 4e-05 ± 2e-05 s⁻¹ |  |
| U49C U65A | < 1e-05 s⁻¹ |  | < 1e-05 s⁻¹ |
| A6G A15U G32C U57G G59U | < 1e-05 s⁻¹ |  |  |
| C8G G9U A52U | < 1e-05 s⁻¹ | < 1e-05 s⁻¹ |  |
| A14U A33U C50G G66U | 0.0013 ± 0.00063 s⁻¹ | 6.05e-05 ± 2.7e-05 s⁻¹ |  |
| G29U A39C G66A | 0.000154 ± 3.3e-05 s⁻¹ | 0.000178 ± 5.1e-05 s⁻¹ |  |
| C10A A48C G59C | < 1e-05 s⁻¹ |  |  |
| C8A G40A A42U G62C | < 1e-05 s⁻¹ |  |  |
| U54A G66A C67A | 0.00151 ± 0.00064 s⁻¹ | 0.00163 ± 0.00044 s⁻¹ |  |
| A36C G41U A53G | < 1e-05 s⁻¹ |  |  |
| A39G C50G C67U | 0.000571 ± 0.00018 s⁻¹ | 0.000299 ± 0.00012 s⁻¹ |  |
| U30C G35U C68U | < 1e-05 s⁻¹ | < 1e-05 s⁻¹ |  |

| Variant | self-cleavage kobs at 640 uM GlcN6P (glucosamine-6-phosphate [1]) | self-cleavage kobs at 2500 uM GlcN6P (glucosamine-6-phosphate [2]) | self-cleavage kobs at 10000 uM GlcN6P (glucosamine-6-phosphate [3]) |
| --- | --- | --- | --- |
| G59U C70G | 0.000548 ± 0.00023 s⁻¹ |  |  |
| G9U U30G C68U | < 1e-05 s⁻¹ |  |  |
| G41C G59U C70G | 3.61e-05 ± 1.7e-05 s⁻¹ | 0.000118 ± 3.1e-05 s⁻¹ | 0.000122 ± 2.1e-05 s⁻¹ |
| C8A G40A C68U | < 1e-05 s⁻¹ |  | < 1e-05 s⁻¹ |
| G29U A52U U65G C68G | 0.000163 ± 5.2e-05 s⁻¹ | 0.000217 ± 5.1e-05 s⁻¹ |  |
| A15U A36C G44U C58G G59C C61U G63U U69A | < 1e-05 s⁻¹ |  |  |
| G29U U46C G62C C71G | < 1e-05 s⁻¹ | < 1e-05 s⁻¹ |  |
| C16A G43U | < 1e-05 s⁻¹ |  | < 1e-05 s⁻¹ |
| U55G G59A C70A | < 1e-05 s⁻¹ | < 1e-05 s⁻¹ |  |
| C11G A33U U54A U65G | < 1e-05 s⁻¹ |  |  |
| C10U U31A G40U U49C C58U G59U C70G | < 1e-05 s⁻¹ |  |  |
| C8G G60A C61G | < 1e-05 s⁻¹ | < 1e-05 s⁻¹ |  |
| G7A G13C A14G U69G | < 1e-05 s⁻¹ | < 1e-05 s⁻¹ |  |
| G29C U56A C58A G63U | < 1e-05 s⁻¹ | < 1e-05 s⁻¹ |  |
| G7C G9U A39G U45A G59A G60A C67U C68U | < 1e-05 s⁻¹ |  |  |
| A42G U54G U55G U65A C67A C71U | 0.000215 ± 3.1e-05 s⁻¹ | 8.43e-05 ± 2e-05 s⁻¹ |  |
| G35C G38U | < 1e-05 s⁻¹ | < 1e-05 s⁻¹ |  |
| A36G U49A G63U | < 1e-05 s⁻¹ |  |  |
| C11U C16U U45A | 0.000806 ± 0.00021 s⁻¹ | 0.00127 ± 0.00037 s⁻¹ |  |
| U30C G43A C71U | < 1e-05 s⁻¹ |  |  |
| G13C G51A U69G | 4.99e-05 ± 1.8e-05 s⁻¹ |  |  |
| G29A U46A | 0.000116 ± 2.5e-05 s⁻¹ | 0.000221 ± 4.8e-05 s⁻¹ | 0.000241 ± 3.6e-05 s⁻¹ |
